Molecular target: HA-Ubiquitin-Vinyl Sulfone (UniProt P0CG48 1-76, vinyl sulfone (active site probe of cysteine DUBs))
Assay: active-site-directed labelling with HA-UbVS

B1: UCHL5 (enzyme)
chain: MTGNAGEWCLMESDPGVFTELIKGFGCRGAQVEEIWSLEPENFEKLKPVHGLIFLFKWQPGEEPAGSVVQDSRLDTIFFAKQVINNACATQAIVSVLLNCTHQDVHLGETLSEFKEFSQSFDAAMKGLALSNSDVIRQVHNSFARQQMFEFDTKTSAKEEDAFHFVSYVPVNGRLYELDGLREGPIDLGACNQDDWISAVRPVIEKRIQKYSEGEIRFNLMAIVSDRKMIYEQKIAELQRQLAEEEPMDTDQGNSMLSAIQSEVAKNQMLIEEEVQKLKRYKIENIRRKHNYLPFIMELLKTLAEHQQLIPLVEKAKEKQNAKKAQETK
  binding result: binds

From publication PMC5287571 (Biochemical pharmacology, 2016)
